Data published in article PMC314469, “Protein Interaction Networks by Proteome Peptide Scanning” (PLoS Biology, 2004).

T1: amphyphisin SH3 (AMPH_HUMAN), P49418
T1 chain: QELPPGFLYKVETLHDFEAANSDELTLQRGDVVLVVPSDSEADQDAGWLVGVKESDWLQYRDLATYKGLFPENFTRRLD


Columns and labels:
[1] = target: T1, amphyphisin SH3 (AMPH_HUMAN), P49418; experiment: SPOT array
[2] = target: endophilin SH3 (SH3G2_HUMAN), Q99962; experiment: SPOT array

Row | Binder | normalised SPOT signal, Boehringer light units (BLU); mean over the file's lines of this peptide [1] | normalised SPOT signal, Boehringer light units (BLU); mean over the file's lines of this peptide [2]
1 | AEMTFRRPAQAFPV [P07949 672-685] | 26.9 | 116
2 | EEAALKRPEIISTV [Q9NU22 363-376] | 18 | 15.2
3 | DVTDPKRPLSFGVT [Q9P2C6 232-245] | 1.7 | 37.5
4 | DVPAFVRPARVEPT [Q9C0A3 802-815] | 4540 | 72.7
5 | DVIIPAKPPVSFFS [Q96K45 88-102] | 15.7 | 53.1
6 | EESLPKRPLGKHSK [Q8WYQ9 81-94] | 32.4 | 201
7 | EDRLPRRPARSGGP [Q9UGK6 43-56] | 9000 | 9090
8 | EDSIPKRPVSSIPL [Q8WTV4 223-236] | 33.5 | 55.6
9 | AETRPHRPPGARDS [Q9H021 747-761] | 218 | 1440
10 | EALEIPRPLRALDQ [Q9HCK4 1228-1241] | 0 | 0
11 | EDEEPKRPLPRKQS [Q9BZ71 330-343] | 35.6 | 15.6
12 | EEASFRRPHPDGDV [Q9UBD0 73-86] | 39.7 | 0.7
13 | EEPKILRPPRRPRK [Q9NYS8 1484-1497] | 12700 | 508
14 | EERPLRRPRPVQRT [Q9H7J2 535-548] | 836 | 678
15 | EDFVPFRPRRSPRM [Q14202 277-290] | 20100 | 2630
16 | AFPRPKRPAPAQEA [Q9BQ84 248-261] | 145 | 154
17 | EDALPTRPKKRARS [Q9UPW0 160-173] | 672 | 291
18 | EDAKLRRPMVIEII [Q9NZ29 33-46] | 34.7 | 74.7
19 | EEVPPHKPPTLPLD [Q9BXF3 1468-1482] | 28.7 | 59.8
20 | EERALRRPGHLYLL [Q8WZ07 124-137] | 38.2 | 14.7
21 | EDVKPFKPPLSDAE [Q9UJV1 144-158] | 41.5 | 58.1
22 | EDPPPTRPSRPWRD [Q9UIG4 62-75] | 6800 | 382
23 | EASGPERPPALLQE [Q03431 573-587] | 52.1 | 62.6
24 | EARKPAKPPVSPKP [Q8WXD9 1216-1230] | 53.6 | 1650
25 | DVLSPLRPSRRHFP [Q12756 1091-1104] | 9010 | 2630
26 | EEKVPEKPPTPKES [Q9HDC5 18-32] | 25 | 21.3
27 | EDVLLRRPKSTPDM [Q9NUD7 336-349] | 38.7 | 16.2
28 | EEIALERPEKEIRN [Q9H5F4 313-326] | 122 | 0

The next lines start with the values.

Row | normalised SPOT signal, Boehringer light units (BLU); mean over the file's lines of this peptide [1] | normalised SPOT signal, Boehringer light units (BLU); mean over the file's lines of this peptide [2] | Binder
29 | 35.9 | 42.8 | EALKLRRPPDASGA [P24530 73-86]
30 | 8310 | 377 | EAGSPRRPRRQRSD [Q15015 1069-1082]
31 | 3170 | 104 | EAQFFLRPLRSYGD [P78357 768-781]
32 | 10.4 | 0 | EADSIPRPYRSQQS [O15015 40-53]
33 | 83.5 | 75.8 | EEAQIFRPLKFNTT [Q15029 572-585]
34 | 109 | 8260 | EEVVPPRPPLPRSY [CAD38934 123-137]
35 | 483 | 22.8 | EDKALPRPIRPHRN [O75163 272-285]
36 | 43.9 | 54.5 | DVVPPIKPPKEIED [O14967 255-269]
37 | 70.7 | 67.4 | AERPPSKPPPVELR [Q14203 913-927]
38 | 154 | 150 | EEEELARPPREQGQ [Q14767 745-758]
39 | 231 | 211 | EASSPARPSKHSVG [Q92932 121-134]
40 | 282 | 141 | EFGLPGRPGRPGLN [P39059 904-917]
41 | 59 | 211 | EASIFRRPYYVSHF [O15360 570-583]
42 | 4.2 | 26.3 | EEEPPRRPRARSSE [O60301 1-14]
